Test [1] has as its target T1, biotinylated human CD40-mouse Fc (Ancell #504-030) (human, UniProt P25942 21-193, biotinylated).
T1 construct: Bought fusion protein; also called hCD40-muIg; CD40mFc-biotin; not shown: mouse Ig Fc of the bought fusion protein
In words: Octet BLI, captured CD40mFc-biotin, bsAb in solution.

Test [2] addresses T2, human CEACAM5, recombinant soluble (hCEACAM-5, R&D Systems #4128-CM-050) (human, UniProt P06731 35-685).
T2 construct: Bought protein; also called Human CEACAM5-His; monomeric human CEACAM5-His
T2 sequence (looked up): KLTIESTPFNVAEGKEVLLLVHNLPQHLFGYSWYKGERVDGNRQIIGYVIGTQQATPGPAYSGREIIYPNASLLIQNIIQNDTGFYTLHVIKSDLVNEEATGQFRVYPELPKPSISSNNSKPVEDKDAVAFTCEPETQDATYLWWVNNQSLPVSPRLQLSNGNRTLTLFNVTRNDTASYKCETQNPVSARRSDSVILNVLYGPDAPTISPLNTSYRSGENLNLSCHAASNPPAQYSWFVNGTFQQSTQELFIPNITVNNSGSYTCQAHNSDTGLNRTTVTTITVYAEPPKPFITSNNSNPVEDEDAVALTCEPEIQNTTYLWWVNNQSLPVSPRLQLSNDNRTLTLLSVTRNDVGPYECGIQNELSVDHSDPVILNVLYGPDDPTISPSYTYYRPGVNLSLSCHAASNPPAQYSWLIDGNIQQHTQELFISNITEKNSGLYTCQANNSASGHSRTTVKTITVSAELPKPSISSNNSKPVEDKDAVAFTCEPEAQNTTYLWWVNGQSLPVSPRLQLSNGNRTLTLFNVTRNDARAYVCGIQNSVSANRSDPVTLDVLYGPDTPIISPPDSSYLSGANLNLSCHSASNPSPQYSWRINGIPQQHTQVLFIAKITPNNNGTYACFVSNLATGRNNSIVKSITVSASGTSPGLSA
As to the kind of experiment: dual target ELISA: CEACAM5 coated, biotinylated hCD40-muIg detection. Here is the method: ELISA plates were coated with human EpCAM, bsAb was added followed by detection using goat anti human-kappa light chain-HRP.
96-well plates were coated with 0.5 μg/mL antigen, hCEACAM-1 (2244-CM-050, R&D Systems), hCEACAM-5 (4128-CM-050, R&D Systems), hCEACAM-6 (3934-CM-050, R&D Systems) or CEACAM-8 (9639-CM-050, R&D Systems) in PBS over night at 4° C. After washing in PBS/0.05% Tween 20 (PBST), the plates were blocked with PBST, 2% BSA for at least 30 minutes at room temperature before a second round of washing. RUBY bsAbs, diluted in PBST, 0.5% BSA, were then added and allowed to bind for at least 1 hour at room temperature. […] Finally, a final round of washing was performed and bound complexes detected using SuperSignal Pico Luminescent as substrate and luminescence signals were measured using Fluostar Optima.
For orientation: In an ELISA, binding on a coated surface is turned into a signal by an enzyme label.

Test [3] has as its target T2, human CEACAM5, recombinant soluble …. As to the kind of experiment: Octet BLI, captured bsAb, soluble antigen. A general note: In BLI a coated tip is dipped into the sample, and binding shifts an interference pattern.
For test [4] the target is unchanged. In words: Octet BLI, captured bsAb, monomeric CEACAM5 in solution.
The target of test [5] is CD40 expressed on cells (CD40 reporter cells, HEK Blue CD40L cells, primary B cells, tumor APCs) (human, UniProt P25942 21-277). As to the kind of experiment: cell-based or functional assay.
In test [6] the target is T3, monomeric Cynomolgus CEACAM5-His (Sino Biological #90891-C08H) (cynomolgus).
T3 chain: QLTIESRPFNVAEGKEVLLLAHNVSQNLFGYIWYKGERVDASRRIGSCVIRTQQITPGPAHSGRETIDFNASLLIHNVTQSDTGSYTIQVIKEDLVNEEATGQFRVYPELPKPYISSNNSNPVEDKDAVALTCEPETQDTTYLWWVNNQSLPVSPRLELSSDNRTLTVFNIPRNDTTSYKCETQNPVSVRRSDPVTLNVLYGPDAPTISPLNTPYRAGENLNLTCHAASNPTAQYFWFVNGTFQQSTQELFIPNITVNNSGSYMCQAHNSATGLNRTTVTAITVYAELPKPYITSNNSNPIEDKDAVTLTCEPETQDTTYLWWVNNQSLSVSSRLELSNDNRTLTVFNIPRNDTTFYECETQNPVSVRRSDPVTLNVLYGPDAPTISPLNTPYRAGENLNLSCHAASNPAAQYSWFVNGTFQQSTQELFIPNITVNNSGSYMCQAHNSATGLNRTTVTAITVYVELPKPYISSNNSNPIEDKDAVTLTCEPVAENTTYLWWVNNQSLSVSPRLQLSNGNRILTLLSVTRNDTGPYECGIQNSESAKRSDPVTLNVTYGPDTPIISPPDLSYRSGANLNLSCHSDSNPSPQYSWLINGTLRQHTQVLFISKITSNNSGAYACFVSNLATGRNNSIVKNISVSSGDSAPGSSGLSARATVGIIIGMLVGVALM
As to the kind of experiment: Octet BLI, captured bsAb, soluble antigen.

Residue numbers refer to the chain shown, from its start.

T1 sequence (P25942 21-193): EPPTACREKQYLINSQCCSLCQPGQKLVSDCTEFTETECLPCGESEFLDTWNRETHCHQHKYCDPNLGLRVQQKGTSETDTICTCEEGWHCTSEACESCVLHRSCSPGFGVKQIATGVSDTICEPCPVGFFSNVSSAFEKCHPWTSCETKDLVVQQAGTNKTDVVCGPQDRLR
Chain of CD40 expressed on cells (CD40 reporter cells, HEK Blue CD40L cells, primary B cells, tumor APCs) (P25942 21-277): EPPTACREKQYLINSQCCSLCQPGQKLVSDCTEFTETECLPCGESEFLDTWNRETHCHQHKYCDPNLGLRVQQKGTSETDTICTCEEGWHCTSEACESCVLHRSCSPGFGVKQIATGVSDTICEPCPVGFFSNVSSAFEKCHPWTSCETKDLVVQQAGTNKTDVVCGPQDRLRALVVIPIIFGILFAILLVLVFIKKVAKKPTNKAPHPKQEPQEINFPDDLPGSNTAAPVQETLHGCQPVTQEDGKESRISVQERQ

B1: AC_05293 (bispecific antibody)
chain 1: EVQLLESGGGLVQPGGSLRLSCAASGFTFSSYAMSWVRQAPGKGLEWVSGIGSYGGGTYYADSVKGRFTISRDNSKNTLYLQMNSLRAEDTAVYYCARYVNFGMDYWGQGTLVTVSS
chain 2: DIQMTQSPSSLSASVGDRVTITCRASQSISSYLNWYQQKPGKAPKLLIYAASSLQSGVPSRFSGSGSGTDFTLTISSLQPEDFATYYCQQYGRNPPTFGQGTKLEIK
chain 3: EVQLLEQSGAELVRPGTSVKISCKASGYAFTNYWLGWVKQRPGHGLEWIGDIFPGSGNIHYNEKFKGKATLTADKSSSTAYMQLSSLTFEDSAVYFCARLRNWDEPMDYWGQGTTVTVSS
chain 4: ELVMTQSPSSLTVTAGEKVTMSCKSSQSLLNSGNQKNYLTWYQQKPGQPPKLLIYWASTRESGVPDRFTGSGSGTDFTLTISSVQAEDLAVYYCQNDYSYPLTFGAGTKLEIK
With B1, in test [1], the Kd is 76 nM, the koff stood at 0.00062 s⁻¹ and the kon worked out at 8300 M⁻¹ s⁻¹.

B2: AC_05331 (bispecific antibody)
chain 1: not shown
chain 2: B1 chain 2 with Y91T, G92Y, R93G, N94Y, P95L, P96H
chain 3: EVQLLESGGGLVQPGGSLRLSCAASGFTFSTYGMHWVRQAPGKGLEWLSYISGGSSYIFYADSVRGRFTISRDNSENALYLQMNSLRAEDTAVYYCARILRGGSGMDLWGQGTLVTVSS
chain 4: QSVLTQPPSASGTPGQRVTISCTGSSSNIGAGYNVYWYQQLPGTAPKLLIYGNINRPSGVPDRFSGSKSGTSASLAISGLRSEDEADYYCAAWDKSISGLVFGGGTKLTVLG
Turning to B2, in test [1], binding was put at a Kd of 0.23 nM, the dissociation rate constant (koff) was found to be 8.1e-06 s⁻¹ and the kon amounted to 36000 M⁻¹ s⁻¹.

B3: AC_05300 (bispecific antibody)
chain 1: B1 chain 3
chain 2: B1 chain 4
chain 3: B1 chain 1
chain 4: B1 chain 2
In test [1], B3 displayed a Kd of 8.5 nM, a koff of 0.0046 s⁻¹ and a kon of 540000 M⁻¹ s⁻¹.

B4: AC_05330 (bispecific antibody)
chain 1: B2 chain 3
chain 2: B2 chain 4
chain 3: not shown
chain 4: B1 chain 2 with Y91T, G92Y, R93G, N94Y, P95L, P96H
Turning to B4, in test [1], binding was characterised by a dissociation constant (Kd) of 0.45 nM, the koff turned out to be 1.6e-05 s⁻¹ and the kon is 35000 M⁻¹ s⁻¹.

B5: Multi39 (bispecific antibody)
heavy 1: not shown
light: not shown
heavy 2: EVQLLESGGGLVQPGGSLRLSCAASGFTFYDHAMSWVREAPGKGLEWVSAISGSYGSTGYADSVKGRFTISRDNSKNTLYLQMNSLRAEDTAVYYCARWGGWAGDIDYWGQGTLVTVSSASTKGPSVFPLAPSSKSTSGGTAALGCLVKDYFPEPVTVSWNSGALTSGVHTFPAVLQSSGLYSLTSVVEVPSSSLGTQTYICNVNHKPSNTKVDKKVEPKSC
notes: copies: 2 + 2 + 2
On to B5, for which the binding result in test [2] is reported as “binds”.

B6: AC_05339 (bispecific antibody)
chain 1: not shown
chain 2: DIQMTQSPSSLSASVGDRVTITCRASQSISSYLNWYQEKPGKAPKLLIYAASSLQSGVPSRFSGSGSGTDFTLTISSLQPEDFATYYCQQAGNPHTFGQGTKLEIKRTVAAPSVFIFPPSDEQLKSGTASVVCYLNNFYPREAKVQWKVDNALQSGNSQESVTEQDSKDSTYSLWSTLTLSKADYEKHKVYACEVTHQGLSSPVTKSFNRGEC
chain 3: EVQLLESGGGLVQPGGSLRLSCAASGFTFSTYGMHWVREAPGKGLEWLSYISGGSSYIFYADSVKGRFTISRDNSKNTLYLQMNSLRAEDTAVYYCARILRGGSGMDLWGQGTLVTVSSASTKGPSVFPLAPSSKSTSGGTAALGCLVKDYFPEPVTVSWNSGALTSGVHTFPAVLQSSGLYSLTSVVEVPSSSLGTQTYICNVNHKPSNTKVDKKVEPKSC
For B6, in test [3], the Kd is less than 0.001 nM, the koff is less than 1e-07 s⁻¹ and the kon was determined as 520000 M⁻¹ s⁻¹. Moreover, in test [4], the Kd was 1.8 nM, the off-rate (koff) came to 0.00042 s⁻¹ and the kon amounted to 240000 M⁻¹ s⁻¹. Moreover, in test [5], the “EC50 of HEK Blue CD40L reporter activation (SEAP), CHO-CEACAM5 crosslinking, 0 Raji sink cells/well” value is 0.03 nM; the “EC50 of HEK Blue CD40L reporter activation (SEAP), CHO-CEACAM5 crosslinking, 10 000 Raji sink cells/well” value worked out at 0.05 nM; the “EC50 of HEK Blue CD40L reporter activation (SEAP), CHO-CEACAM5 crosslinking, 30 000 Raji sink cells/well” value is 0.08 nM; the “EC50 of HEK Blue CD40L reporter activation (SEAP), CHO-CEACAM5 crosslinking, 90 000 Raji sink cells/well” value is 0.23 nM.

B7: AC_05355 (bispecific antibody)
chain 1: not shown
chain 2: DIQMTQSPSSLSASVGDRVTITCRASENIFSYLAWYQEKPGKAPKLLIYNTRTLQSGVPSRFSGSGSGTDFTLTISSLQPEDFATYYCQHHYGTPFTFGQGTKLEIKRTVAAPSVFIFPPSDEQLKSGTASVVCYLNNFYPREAKVQWKVDNALQSGNSQESVTEQDSKDSTYSLWSTLTLSKADYEKHKVYACEVTHQGLSSPVTKSFNRGEC
chain 3: B6 chain 3
As to B7, in test [6], the Kd is 20 nM, the koff turned out to be 0.0038 s⁻¹ and the kon is 190000 M⁻¹ s⁻¹. Further, in test [3], the Kd was determined as 1 nM, the koff came out at 0.00053 s⁻¹ and the kon was 510000 M⁻¹ s⁻¹.

In general, Kd refers to the free concentration of one partner at which half of the binding sites on the other are occupied at equilibrium, for simple one-to-one binding. As a reminder, the koff is the rate constant with which the complex falls apart. For orientation: kon means the second-order rate constant of association.

The record behind these values is patent publication US20240117074A1 (published 2024).
